Literature values as cited in article PMC10611464.
Like-named read-outs stand apart in the source and are kept apart here. Blank lines part the entries; values can stand above or below the substance they belong to.

How the values were obtained:
PACAP (Homo sapiens) [1] = molecular target: PACAP (Homo sapiens) (UniProt P18509)
PACAP (Homo sapiens) [2] = molecular target: PACAP (Homo sapiens) (UniProt P18509); remark: listed apart in the source
VIP (Homo sapiens) [3] = molecular target: VIP (Homo sapiens) (UniProt P01282)
Chain of UniProt P01282 (P01282 125-152): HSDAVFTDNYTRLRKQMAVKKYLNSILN

VIP (Homo sapiens) [4] = molecular target: VIP (Homo sapiens) (UniProt P01282); remark: listed apart in the source
PACAP (Homo sapiens) [5] = molecular target: PACAP (Homo sapiens) (UniProt P18509); remark: listed apart in the source

Chain of UniProt P18509 (P18509 82-129): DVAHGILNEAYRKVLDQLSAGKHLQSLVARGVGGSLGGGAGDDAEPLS

Kd (PACAP (Homo sapiens) [1]): 0.5 nM
Substance: PAC1 (from UniProt P41586)

Kd (PACAP (Homo sapiens) [2]): 1 nM | Kd (VIP (Homo sapiens) [3]): 1 nM
Substance: VPAC2 (from UniProt P41587)

Kd (VIP (Homo sapiens) [4]): 1 nM | Kd (PACAP (Homo sapiens) [5]): 1 nM
Substance: VPAC1 (from UniProt P32241)
